The record followed here is paper PMC6073767.

Data set [1] can be described thus: confocal linescan, surface colocalisation, HEK293T co-expression. To be noted: glycan lost; control: Panx2-FLAG.
A short description of data set [2]: cell-surface biotinylation, HEK293T. As to conditions: glycan lost; control: wild-type Panx2.
The nature of data set [3]: cell-surface biotinylation, NRK. As to conditions: glycan lost; control: wild-type Panx2.
The nature of data set [4]: cell-surface biotinylation, AD293. To be noted: glycan lost; control: wild-type Panx2.

B1: Panx2: N86Q-FLAG (protein)
parent chain: MHHLLEQSADMATALLAGEKLRELILPGSQDDKAGALAALLLQLKLELPFDRVVTIGTVLVPILLVTLVFTKNFAEEPIYCYTPHNFTRDQALYARGYCWTELRDALPGVDASLWPSLFEHKFLPYALLAFAAIMYVPALGWEFLASTRLTSELNFLLQEIDNCYHRAAEGRAPKIEKQIQSKGPGITEREKREIIENAEKEKSPEQNLFEKYLERRGRSNFLAKLYLARHVLILLLSVVPISYLCTYYATQKQNEFTCALGASPDGPVGSAGPTVRVSCKLPSVQLQRIIAGVDIVLLCFMNLIILVNLIHLFIFRKSNFIFDKLNKVGIKTRRQWRRSQFCDINILAMFCNENRDHIKSLNRLDFITNESDLMYDNVVRQLLAALAQSNHDTTPTVRDSGIQTVDPSINPAEPDGSAEPPVVKRPRKKMKWIPTSNPLPQPFKEQLAIMRVENSKTEKPKPVRRKTATDTLIAPLLDAGARAAHHYKGSGGDSGPSSAPPAASEKKHTRHFSLDVHPYILGTKKAKTEAVPPALPASRSQEGGFLSQTEECGLGLAAAPTKDAPLPEKEIPYPTEPALPGLPSGGSFHVCSPPAAPAAASLSPGSLGKADPLTILSRNATHPLLHISTLYEAREEEEGGPCAPSDMGDLLSIPPPQQILIATFEEPRTVVSTVEF
As for B1, in data set [1], the localisation_or_trafficking result was “decreases”.

B2: Panx2: N86Q (protein)
parent chain: MHHLLEQSADMATALLAGEKLRELILPGSQDDKAGALAALLLQLKLELPFDRVVTIGTVLVPILLVTLVFTKNFAEEPIYCYTPHNFTRDQALYARGYCWTELRDALPGVDASLWPSLFEHKFLPYALLAFAAIMYVPALGWEFLASTRLTSELNFLLQEIDNCYHRAAEGRAPKIEKQIQSKGPGITEREKREIIENAEKEKSPEQNLFEKYLERRGRSNFLAKLYLARHVLILLLSVVPISYLCTYYATQKQNEFTCALGASPDGPVGSAGPTVRVSCKLPSVQLQRIIAGVDIVLLCFMNLIILVNLIHLFIFRKSNFIFDKLNKVGIKTRRQWRRSQFCDINILAMFCNENRDHIKSLNRLDFITNESDLMYDNVVRQLLAALAQSNHDTTPTVRDSGIQTVDPSINPAEPDGSAEPPVVKRPRKKMKWIPTSNPLPQPFKEQLAIMRVENSKTEKPKPVRRKTATDTLIAPLLDAGARAAHHYKGSGGDSGPSSAPPAASEKKHTRHFSLDVHPYILGTKKAKTEAVPPALPASRSQEGGFLSQTEECGLGLAAAPTKDAPLPEKEIPYPTEPALPGLPSGGSFHVCSPPAAPAAASLSPGSLGKADPLTILSRNATHPLLHISTLYEAREEEEGGPCAPSDMGDLLSIPPPQQILIATFEEPRTVVSTVEF
With B2, the “localisation_or_trafficking, other: surface fraction of total protein” value in data set [2] is listed as “decreases, ~1 vs approximately 4”. The localisation_or_trafficking result in data set [3] and in data set [4] was “decreases” throughout.
